Numbered stars: 1 amine (or outer) side, 2 acyl side, 3 side chain; on linkers, the order of the positions; unused ones are H or OH. Bridge positions count the residues as written; N and C are the ends. * marks the point of attachment. C20 diacid = O=C(O)CCCCCCCCCCCCCCCCCCC(=O)*; γGlu = O=C(O)[C@H](CCC(=O)[*:2])N[*:1]
T1: human amylin 3(a) receptor (human calcitonin receptor plus RAMP-3) (human, UniProt P30988 25-474; O60896 24-148, limits assumed)
T1 construct: whole, on cells; Whole cells in the luciferase assay (Assay II a); also called hAmylin-R; human amylin receptor
T1 sequence (looked up) 1: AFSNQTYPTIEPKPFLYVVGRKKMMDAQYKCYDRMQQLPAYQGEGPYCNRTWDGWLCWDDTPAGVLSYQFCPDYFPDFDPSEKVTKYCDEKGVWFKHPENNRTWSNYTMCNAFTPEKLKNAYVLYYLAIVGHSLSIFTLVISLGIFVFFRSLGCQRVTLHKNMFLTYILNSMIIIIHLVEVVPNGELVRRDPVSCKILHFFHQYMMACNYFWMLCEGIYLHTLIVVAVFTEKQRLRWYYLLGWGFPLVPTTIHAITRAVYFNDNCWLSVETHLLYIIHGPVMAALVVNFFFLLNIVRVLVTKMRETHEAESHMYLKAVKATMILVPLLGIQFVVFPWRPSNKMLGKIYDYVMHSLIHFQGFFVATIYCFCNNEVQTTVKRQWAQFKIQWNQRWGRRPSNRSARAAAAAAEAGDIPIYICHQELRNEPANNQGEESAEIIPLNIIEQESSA
T1 sequence (looked up) 2: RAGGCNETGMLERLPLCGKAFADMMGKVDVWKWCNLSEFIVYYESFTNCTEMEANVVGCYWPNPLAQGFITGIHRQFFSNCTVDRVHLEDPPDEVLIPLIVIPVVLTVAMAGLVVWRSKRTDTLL

T2: human calcitonin receptor (human, UniProt P30988 25-474)
T2 sequence (looked up): T1 sequence (looked up) 1

B1: N^α1-[(4S)-4-carboxy-4-(19-carboxynonadecanoylamino)butanoyl]-[Glu14,Arg17,Pro21,Pro27,Pro29]-h-amylin (peptide)
peptide: {C20 diacid-γGlu}-KCNTATCATQRLAEFLRHSSPNFGAIPSPTNVGSNTY-NH2
modifications: disulfide 2-7
SMILES: CC[C@H](C)[C@H](NC(=O)[C@H](C)NC(=O)CNC(=O)[C@H](Cc1ccccc1)NC(=O)[C@H](CC(N)=O)NC(=O)[C@@H]1CCCN1C(=O)[C@H](CO)NC(=O)[C@H](CO)NC(=O)[C@H](Cc1c[nH]cn1)NC(=O)[C@H](CCCNC(=N)N)NC(=O)[C@H](CC(C)C)NC(=O)[C@H](Cc1ccccc1)NC(=O)[C@H](CCC(=O)O)NC(=O)[C@H](C)NC(=O)[C@H](CC(C)C)NC(=O)[C@H](CCCNC(=N)N)NC(=O)[C@H](CCC(N)=O)NC(=O)[C@@H](NC(=O)[C@H](C)NC(=O)[C@@H]1CSSC[C@H](NC(=O)[C@H](CCCCN)NC(=O)CC[C@H](NC(=O)CCCCCCCCCCCCCCCCCCC(=O)O)C(=O)O)C(=O)N[C@@H](CC(N)=O)C(=O)N[C@@H]([C@@H](C)O)C(=O)N[C@@H](C)C(=O)N[C@@H]([C@@H](C)O)C(=O)N1)[C@@H](C)O)C(=O)N1CCC[C@H]1C(=O)N[C@@H](CO)C(=O)N1CCC[C@H]1C(=O)N[C@H](C(=O)N[C@@H](CC(N)=O)C(=O)N[C@H](C(=O)NCC(=O)N[C@@H](CO)C(=O)N[C@@H](CC(N)=O)C(=O)N[C@H](C(=O)N[C@@H](Cc1ccc(O)cc1)C(N)=O)[C@@H](C)O)C(C)C)[C@@H](C)O
notes: also called compound 37
B2: N^α1-[(4S)-4-carboxy-4-(19-carboxynonadecanoylamino)butanoyl]-[Glu14,Arg17,Pro21,Pro27,Pro37]-h-amylin (peptide)
peptide: {C20 diacid-γGlu}-KCNTATCATQRLAEFLRHSSPNFGAIPSSTNVGSNTP-NH2
modifications: disulfide 2-7
SMILES: CC[C@H](C)[C@H](NC(=O)[C@H](C)NC(=O)CNC(=O)[C@H](Cc1ccccc1)NC(=O)[C@H](CC(N)=O)NC(=O)[C@@H]1CCCN1C(=O)[C@H](CO)NC(=O)[C@H](CO)NC(=O)[C@H](Cc1c[nH]cn1)NC(=O)[C@H](CCCNC(=N)N)NC(=O)[C@H](CC(C)C)NC(=O)[C@H](Cc1ccccc1)NC(=O)[C@H](CCC(=O)O)NC(=O)[C@H](C)NC(=O)[C@H](CC(C)C)NC(=O)[C@H](CCCNC(=N)N)NC(=O)[C@H](CCC(N)=O)NC(=O)[C@@H](NC(=O)[C@H](C)NC(=O)[C@@H]1CSSC[C@H](NC(=O)[C@H](CCCCN)NC(=O)CC[C@H](NC(=O)CCCCCCCCCCCCCCCCCCC(=O)O)C(=O)O)C(=O)N[C@@H](CC(N)=O)C(=O)N[C@@H]([C@@H](C)O)C(=O)N[C@@H](C)C(=O)N[C@@H]([C@@H](C)O)C(=O)N1)[C@@H](C)O)C(=O)N1CCC[C@H]1C(=O)N[C@@H](CO)C(=O)N[C@@H](CO)C(=O)N[C@H](C(=O)N[C@@H](CC(N)=O)C(=O)N[C@H](C(=O)NCC(=O)N[C@@H](CO)C(=O)N[C@@H](CC(N)=O)C(=O)N[C@H](C(=O)N1CCC[C@H]1C(N)=O)[C@@H](C)O)C(C)C)[C@@H](C)O
notes: also called compound 8
B3: N^α1-[(4S)-4-carboxy-4-(19-carboxynonadecanoylamino)butanoyl]-[Glu14,Arg17,Pro21,Pro27,Pro31]-h-amylin (peptide)
peptide: {C20 diacid-γGlu}-KCNTATCATQRLAEFLRHSSPNFGAIPSSTPVGSNTY-NH2
modifications: disulfide 2-7
SMILES: CC[C@H](C)[C@H](NC(=O)[C@H](C)NC(=O)CNC(=O)[C@H](Cc1ccccc1)NC(=O)[C@H](CC(N)=O)NC(=O)[C@@H]1CCCN1C(=O)[C@H](CO)NC(=O)[C@H](CO)NC(=O)[C@H](Cc1c[nH]cn1)NC(=O)[C@H](CCCNC(=N)N)NC(=O)[C@H](CC(C)C)NC(=O)[C@H](Cc1ccccc1)NC(=O)[C@H](CCC(=O)O)NC(=O)[C@H](C)NC(=O)[C@H](CC(C)C)NC(=O)[C@H](CCCNC(=N)N)NC(=O)[C@H](CCC(N)=O)NC(=O)[C@@H](NC(=O)[C@H](C)NC(=O)[C@@H]1CSSC[C@H](NC(=O)[C@H](CCCCN)NC(=O)CC[C@H](NC(=O)CCCCCCCCCCCCCCCCCCC(=O)O)C(=O)O)C(=O)N[C@@H](CC(N)=O)C(=O)N[C@@H]([C@@H](C)O)C(=O)N[C@@H](C)C(=O)N[C@@H]([C@@H](C)O)C(=O)N1)[C@@H](C)O)C(=O)N1CCC[C@H]1C(=O)N[C@@H](CO)C(=O)N[C@@H](CO)C(=O)N[C@H](C(=O)N1CCC[C@H]1C(=O)N[C@H](C(=O)NCC(=O)N[C@@H](CO)C(=O)N[C@@H](CC(N)=O)C(=O)N[C@H](C(=O)N[C@@H](Cc1ccc(O)cc1)C(N)=O)[C@@H](C)O)C(C)C)[C@@H](C)O
notes: also called compound 31
B4: N^α1-[(4S)-4-carboxy-4-(19-carboxynonadecanoylamino)butanoyl]-[Glu14,Arg17,Pro21,Pro27,Pro34]-h-amylin (peptide)
peptide: {C20 diacid-γGlu}-KCNTATCATQRLAEFLRHSSPNFGAIPSSTNVGPNTY-NH2
modifications: disulfide 2-7
SMILES: CC[C@H](C)[C@H](NC(=O)[C@H](C)NC(=O)CNC(=O)[C@H](Cc1ccccc1)NC(=O)[C@H](CC(N)=O)NC(=O)[C@@H]1CCCN1C(=O)[C@H](CO)NC(=O)[C@H](CO)NC(=O)[C@H](Cc1c[nH]cn1)NC(=O)[C@H](CCCNC(=N)N)NC(=O)[C@H](CC(C)C)NC(=O)[C@H](Cc1ccccc1)NC(=O)[C@H](CCC(=O)O)NC(=O)[C@H](C)NC(=O)[C@H](CC(C)C)NC(=O)[C@H](CCCNC(=N)N)NC(=O)[C@H](CCC(N)=O)NC(=O)[C@@H](NC(=O)[C@H](C)NC(=O)[C@@H]1CSSC[C@H](NC(=O)[C@H](CCCCN)NC(=O)CC[C@H](NC(=O)CCCCCCCCCCCCCCCCCCC(=O)O)C(=O)O)C(=O)N[C@@H](CC(N)=O)C(=O)N[C@@H]([C@@H](C)O)C(=O)N[C@@H](C)C(=O)N[C@@H]([C@@H](C)O)C(=O)N1)[C@@H](C)O)C(=O)N1CCC[C@H]1C(=O)N[C@@H](CO)C(=O)N[C@@H](CO)C(=O)N[C@H](C(=O)N[C@@H](CC(N)=O)C(=O)N[C@H](C(=O)NCC(=O)N1CCC[C@H]1C(=O)N[C@@H](CC(N)=O)C(=O)N[C@H](C(=O)N[C@@H](Cc1ccc(O)cc1)C(N)=O)[C@@H](C)O)C(C)C)[C@@H](C)O
notes: also called compound 32
B5: N^α1-[(4S)-4-carboxy-4-(19-carboxynonadecanoylamino)butanoyl]-[Glu14,Arg17,Pro21,Pro28,Glu35]-h-amylin (peptide)
peptide: {C20 diacid-γGlu}-KCNTATCATQRLAEFLRHSSPNFGAILPSTNVGSETY-NH2
modifications: disulfide 2-7
notes: also called compound 33

What follows are binders tested against T1, human amylin 3(a) receptor (human …) (assay: SPA competition binding, displacement of 125I-rat amylin from membranes of Amylin 3(a)/CRE-luc BHK cells (Assay V)).
Description: The binding assay was performed using scintillation proximity assay (SPA) beads (RPNQ0001) from PerkinElmer and cell membranes from the Amylin 3(a)/CRE-luc cells (as described in Assay (II)) were used. Membranes were prepared in the following way; the cells were rinsed with PBS and incubated with Versene for approximately 5 min before harvesting. The cells were flushed with PBS and the cell-suspension was centrifuged for 5 min at 1000 rpm. Cells were homogenized (ultrathurrax) in a buffer containing 20 mM Na-HEPES and 10 mM EDTA (pH 7.4) and centrifuged at 20.000 rpm for 15 min. The resulting pellet was resuspended, homogenized and centrifuged (20.000 rpm, 15 min) in a buffer containing 20 mM Na-HEPES and 0.1 mM EDTA (pH 7.4, buffer 2). The resulting pellet was resuspended in buffer 2 and protein concentration was measured (BCA protein Assay, Pierce). The homogenate was kept cold during the whole procedure. The membranes were kept at −80° C. until use. The assay was performed in a 384 well Optiplate (PerkinElmer) in a total volume of 40 ul. Membranes were mixed with SPA beads. Final concentration of membranes 35 ng/μL final and SPA beads was 0.05 mg/well. Test-compounds were dissolved in DMSO and further diluted in assay buffer (50 mM Hepes, pH 7.4, 1 mM CaCl2, 5 mM MgCl₂, 0.1% OA and 0.02% Tween20). […] The final mixture was incubated with shaking at 400 rpm for 120 min at 25° C. prior to centrifugation (1500 rpm, 10 min). Samples were analyzed on TopCounter™ (Packard). The IC₅₀ was calculated using (one site binding competition analysis) GraphPad Prism5 as a measure of receptor affinity.

IC50	Binder
0.97 nM	B1
0.072 nM	B2
0.204 nM	B3
0.1 nM	B4
0.915 nM	B5

These binders were tested against T1, human amylin 3(a) receptor (human …) (assay: cell-based or functional assay).

Ratio hCT/hAmylin funct.	hAmylin-R funct. EC50	Binder
4	0.092 nM	B1
1.1	0.082 nM	B2
6.4	0.112 nM	B3
6.6	0.05 nM	B4
2.2	0.243 nM	B5

What follows are binders tested against T2, human calcitonin receptor (assay: cell-based or functional assay).

hCTR funct. EC50	Binder
0.372 nM	B1
0.087 nM	B2
0.717 nM	B3
0.327 nM	B4
0.528 nM	B5

— patent publication US20140087995A1 (published 2014)
